Source: the RNAGym collection of RNA variant scans (doi:10.1073/pnas.2313332121)

B1: TPR t1 (parent)
chain: GACCAAUCUGCCCUCAGAGCUCGAGAACAUCUUCGGAUGCAGAGGAGGCAGGCUUCGGUGGCGCGAUAGCGCCAACGUCCUCAACCUCCAAUGCAUCCCACCACAUGAUGAUGCCUGAAGAGCCUUGGUUUUUUG

Variants of: B1
Assay: polymerase ribozyme fitness, log enrichment relative to wild type (log ratio); higher = more active; in vitro selection for triplet polymerase activity
Method in brief: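 Each subunit of a heterodimeric triplet polymerase ribozyme was mutagenized into a library by PCR, transcribed, and subjected to one round of in vitro selection, run in triplicate. Libraries were annealed with a biotinylated primer, the partner subunit and triplets, incubated frozen at −7 °C, and extended constructs were gel-excised, captured on streptavidin beads and recovered by RT-PCR. Input and output libraries were sequenced on Illumina, keeping genotypes with ≥10 input reads and ≥1 read per output. Fitness is log base 2 of genotype enrichment divided by wild-type enrichment, from inverse-variance-weighted replicate averages.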

Point of comparison: GACCAAUCUGCCCUCAGAGCUCGAGAACAUCUUCGGAUGCAGAGGAGGCAGGCUUCGGUGGCUCGAUAGCGCCAACGGCCUCAACCUCCAAUGCAUCCCACCACAUUAUGUUGCCCGAAGAGCCUUGGUUUUUUG [G63U U78G G107U A111U U116C], “polymerase ribozyme fitness (log ratio)” value -6. Against it:
- GACCAAUCUGCCCUCAGAGCUCGAGAACAUCUUCGGAUGCAGAGGAGGCAGGCUUCGGUGCCGCGAUAGCGCCAACGUCCUCAACCUCCAAUGCAUCCCACUACAUGAUGAUGCCUGAAGAACAUUGGUUUUUUG [G61C C102U G122A C124A] — higher, -3.47
- GACCAAUCUGCCCUCAGAGCUCGAGAACAUCUUAGGAUGCAGAGGAGGCAGGCUUCGGUGGCGCGAUAGCGCCAACGUCCUCAACCUCCAAUGCAUCCCACCACAUGAUGAUGACUGAAGAGCCUUGGUUUUUUG [C34A C114A] — higher, -4.47
- GACCAAUCUGCCUUCAGAGCUCGAGAACAUCUUCGGAUGCAGAGGAGGCAGGCUUCGGUGGCGGGAUAGCGCCAACGUCCUCAACCGCCAAUGCAUCCCACCACAUGAUGAUGCCUGAAAAGGCUUGGUUUUUUG [C13U C64G U87G G120A C123G] — higher, -5.41
- GACCAAUCUGCCCUCAGAGCUCGAGAACAUCUUCGGAUGCAGAGGAGGCAGGCUUCGGAGGCGCGAUAGCGCCAACGUCCUCAACCUCCAAUGCAUCCCACCACAUGAUGAUGCCUGAAGAGCCUUGGUUUUUUG [U59A] — higher, 0.0811
- GACCAAUCGGCCCUCAGAGCUCGAGAACAUCUUCGGAUGCAGAGGAGGCAGGCUUCGGUGGCGCGAUAGUGCCAACGUCCUCAACCUCCAAUGCAUCUCACCACAUGAUGAUGCCUGAAGAGCCUUGGUUUUUUG [U9G C70U C98U] — higher, -1.09
- GACCAAUCUGCCCUCAGAGCUCGAGAAAAUCUUCGGAUGCAGAGGAGGCAGGCUUCGGUGGCGCGAUAGCGUCAACGUCCUCAACCUCCAAUGCAUCCCCCCACAUGAUGAUGCCUGAAAAGCCUUGGUUUUUUG [C28A C72U A100C G120A] — higher, -4.36
- GACCAAUCUGCACUCAGAGCUCGAGAACAUCUUCGGAUGCAGAGGAGGCAGGCUUCGGUGGCGCGAUAGCGCCAACGUCCUCAACCUCCAAUGCAUCCCACCACAUGAUGAUGUCUGAAGAGCCUUGGUUUUUUG [C12A C114U] — higher, -1.85
- GACCAAUCUGCCCUCAUAGCUCGAGAACAUCUUCGGAUGCAGAGGAGGCAGGCUUCGGUGGCGCGAUAGCGCCAACGCCCUCAACCUCCAAUGCAUCCCACCACAUGAUGAUGCCUGAAGAGCCUUGGUUUUUUG [G17U U78C] — higher, -2.6
- GACCAAUCUGCCCUCAGAGCUCGAGAACAUCUUCGGAUGCAGAGGAGGCAGGCUUCGGUGGCGCGAUAGCGCUAACGUCCUCAACUUCCAAUGCACCCCACCACAUGAUGAUGCCUGAGGAGCCUUGGUUCUUUG [C73U C86U U96C A119G U131C] — higher, 0.735
- GACCAAUCUGCCCUCAGAGCUCGAGAACAUCUUCGGAUGCAGAGGAGGCAGGCUUCGGUGGCGCGAUAGCGCCAACGUCCUGAACCUACAAUGCAUCCCACCACAUGAUGAUGCCUGAAGAGCCUUGGUUUUUUG [C82G C88A] — higher, -1.21
- GACCAAUCUGCCCUCAGAGCUCGAGAACAUCUUCGGAUGCAGAGGAGGCAGGCUUCGGUGGCGCGAUAGCGCCAACGUCCUCAACCUCCAAUGCAUCCCACCACAUGAUGAUGCCUGAAUAGCCUUGGUAUUUUG [G120U U130A] — higher, -0.3
- GACCAAUCUGCCCUCAGAGCUCGAGAACAUCUUCGGAUGCAGAGGAGCCAGGCUUUGGUGGCGCGAUAGCGCGAACGUCCUCAACCUCCAAUGCAUCCCACCACAUGAUGAUGCCUGAAGAGCCUUGGUUUUUUG [G48C C56U C73G] — higher, -1.95
- GACCAAUCUGCCCUCAGAGCUCGAGAACAUCUUCGGAUGCAGAGGAGGCAGGCUUCGGUGGCACGAUAGCGCCAACGUCCUCAACCUCCAAUGCAUCCCACCACAUGAUGAUGCCUGAAGAGCUUUGGUUUUUUG [G63A C124U] — higher, 0.738
- GACCAAUCUGCCCUCAGAGCUCGAGAACAUCUUCGGAUGCAGAGGGGGCAGGCUUCGGUGGCGCGAUAGCGCCAACGUCCUCAACCUUCAAUGCAUCCCACCACAUGAUGAUGCCUGAAGAGCCUUGGUUUUUUG [A46G C88U] — higher, -0.84
- GACCAAUCUGCCCUCAGAGCUCGAGAACAUCUUCGGAUGCAGAGGAGGCGGGCUUCGGUGGCGCGAUAGCGCCAACGUCCUUAACCUCCAAUGCAUCCCACCACAUGAUGAUGCCUGAAGAGCCUUGGUUUUUUG [A50G C82U] — higher, 0.198
- GACCAAUCUGCCCUCAGAGCUCGAGAACAUCUUCGGAUGCAGAGGAGGCAGGCUUCGGUGGCACGAUAGCGCCAACGUCCUCAACCUCCAAUGCACCCCACCACAUGAUGAUGCCUGAAGAGCCUUGGUUUUUUG [G63A U96C] — higher, -1.54
- GGCCAAUCUGCCCUCAGAGCUCGAGAACAUCUUCGGAUGCAGAGGAGGUAGGCUUCGGUGGAGCGAUAGCGCCAACGUCCUCAACCUCCAAUGGAUCCCACCACAUGAUGAUGCCUGAAGAGCCUUGGUUUUUUG [A2G C49U C62A C94G] — higher, -4.35
- GACCAAUCUGCCCUCAGAGCUCGAGAACAUCUUCGGAUGCAGAGGAGGCAGGCUUCGGUGGCGCGAUAGCGCCAACGUCCUCAACCUCCAAUGCAUCCCACAACAUGAUGGUGCAUGUAGAGCCUUGGUUUUUUG [C102A A111G C115A A118U] — higher, -4.83
- GACCAAUCUGCCCUCAGAGCUCGAGAACAUCUUCGGAUGCAGAGGAGGCAGGCUUCGGUGGCUCGAUAGCGCCAACGUCCUCAACCUCCAAUGCAUCCCACCACAUGAUGAAGCCUGAGGAGCCUUGGUUUUUUG [G63U U112A A119G] — higher, -0.127
- GACCAAUCGGGCCUCAGAGCUCGAGAACAUCUUCGGAUGCAGAGGAGGCAGGCUUCGGUGGCGCGAUAGCGCCAACGUCCUCAACCUCCAAUGUAUCCCACCACAUGAUGCUGCCUGAAGAGCCUUGGUUUUUUG [U9G C11G C94U A111C] — higher, -4.33
- GACCAAUCUGCCCUCAGAGCUCGAGAACAUCUUCGGAUGCAGAGGAGGCAGGCUUCGGUGACGCGAUAGCGCCAACGUCCUCAACCUCCAAUGCAUCCCACCACAUGAUGAUGCCGGAAGAGCCUUGGUUUUUUG [G61A U116G] — higher, -3.01
- GACCAAUUUGCCCUCAGAGCUCGAGAACAUCUUCGGAUGAAGAGGAGGCAGGCUUCGGUGGCGCGAUAGCGCCAACGUCCUCAACAUCCAAUGCAUCCCACCACAUGAUGAUGCCUGAAGAGCCUUGGUCUUUUG [C8U C40A C86A U130C] — higher, -2
- GACCAAUCUGCCCUCAGAGCUCGAGAACAUCUUCGGAUGCAGAGGAGGCAGGCUUCGGAGGCGCGAUAGCGCCAACGUCCUCAACCUCCAAUGCAUCCCACCACAUGAUGAUGCCUGAAGAGCCUCGGUUUUUUG [U59A U126C] — higher, -1.31
- GACCAAUCUGCCCUCAAAGCUCGAGAACAUCUUCGGAUGCAGAGGAGGCAGGCUUCGGUGGCGCGAUAGCGCCAACGUCCUCAACCUCCAAUGCACCCCACCACAUGAUGAUGCCUGAAGAGCCUUGGUUUUUUG [G17A U96C] — higher, -3.36
- GACCAAUCUGCCCUCAGAGCUCGAGAACAUCUUCGGAUGCAGAGGAGGCAGGCUUCGGUGGCGCGAUAGCGCCAACGUCUUCAACCUCCAAUGCAUCCCACCACAUGAUGAUGCUUGAAGAGCCUUGGUUUUUUG [C80U C115U] — higher, -2.06
- GACCAAUAUGCCCUCAGAGCUCGAGAACAUCUUCGGAUGCAGAGGAGGCAGGCUUCGGUGGCGCGAUAGCGCCAACGUCCUCAACCUCCAAUGCAUCCCACCGCAUGAUUAUGCCUGAAGAGCCUUGGUUUUUUG [C8A A103G G110U] — higher, -5.33
- GACCAAUCUGCCCUCAGAGCUCGAGAACAUCUUCGGAUGCAGAGGAGGCAGGCUUCGGUGGCACGAUAGCGCCAACGUCCUCAACCUCCAAUGCAUCCCACCACAUGAUGAUGCCAGAAGAGCCUUGGUUUUUUG [G63A U116A] — higher, -3.92
- GACCACUCUGCCCUCAGAGCUCGAGAACUUCUUCGGAUGCAGAGGAGGAAGGCUUCGGUGGCGCGCUAGCCCCAACGUCCUCAACCUCCAAUGCAUCCCACCACAUGAUGAUGCCUGAUGAGCCUUGGUUUUUUG [A6C A29U C49A A66C G71C A119U] — higher, -4.4
- GUCCAAUCUGCCCUCAGAGCUCGAGAACAUCUUCGGAUGCAGAGGAGGCAGGCUUCGGUGGCGCGAUAGCGCCAACGUCCUCAACCUCCAAUGCAUCCCACCACAUGAUGAUGCCUGAAGAGCCUUGGUCUUUUG [A2U U130C] — higher, -0.66
- GACCAAUCUGCCCUCAGAGCUCGAGAACAUCUUCGGCUGCAGAGGAGGCAGGCUUCGGUGGCGCGAUAGCGCCAACGUCCUCAACCUCCAAUGCAUCUCACCACAUGAUGAUGCCUGAAGAGCCUUGGUUUUUUG [A37C C98U] — higher, -1.41
- GACCAAUCUGCCCUCAGAGCUCGAGAACAUCUUCGGAUGCAGAGGAGGCAGGCUUCGGUGGCGCGAUAGGGCCAACGCCCUCAACCUCCAACGCAUCCCACCACAUGAUGAUGCCUGAAGAGCCUUGGUUUUUUG [C70G U78C U92C] — higher, -5.65
- GACCAAUCUGCCCUCAGAGCUCGAGUACAUCUUCGGAUGCAGAGGAGGCAGGCUUCGGUGGCGCAAUAGCGCCAACGUCCUCAACCUCCAAUCCAUCUCACCACAUGAUGAUGCCUGAAGAGUCUUGGUUUUUUG [A26U G65A G93C C98U C123U] — lower, -6.78
- GACCAAUCUGCCCUCAGAGCUCGAGAACAUCUUCGGAUGCAGAGGAGGUAGGCUUCGGUGGCGCGAUAGCGCCAACGUCCUCAACCUCCAAUGCCUCCCACCACAUGAUGAUGCCUGAAGAGCCUUGGUUUUUUG [C49U A95C] — higher, -1
- GACCAAUCUGCCCUCAGAGCUCGAGAACAUCUUCGGAUGCAGAGGAGGCAGGCUUCGGUGGCACGAUAGCGCCAACGUCCUCAACCUCCAAUGCAUCCCACCACAUGAUGAUGCCUGAAGAGCCUUGGUUAUUUG [G63A U131A] — higher, -1.11
- GACCAAUCUGCCCUCAGAGCUCGAGAACAUCUUCGGCUGCAGAGGAGGCAGGCUUCGGUGGCGCGAUAGCGGCAACGUCCUCAACCUCCAAUGCAUCCCACCACAUGAUGAUGCCUGAAGAGGCUUGGUUUUUUG [A37C C72G C123G] — higher, 0.506
- GUCCAUUCUGCCCUCAGAGCUCGAGAACAUCUUCGGAUGCAGAGGAGGCAGGCUUCGGUGGCGCGAUAGCGCCAACGUCCUCAACCUCCAAUGCAUCCCACCACAUGAUGAUGCCUGAAAAGCCUUGGUUUUUUG [A2U A6U G120A] — higher, 0.00399
- GACCACUCUGCCCUCAGAGCUCGAGAACAUCUUCGGAUGCAGAGGAGGCUGGCUUCGAUCGCGCGAUAGUGCCAACGUCCUCAACCUCCAAUGCAUCCCACCACAUGAUGAUGCCUGAAGAGCCUUGGUUUUUUG [A6C A50U G58A G60C C70U] — higher, -3.42
- GACCAAGCUGCCCUCAGAGCUCGAGAACAUCUUCGGAUGCAGAGGAGGAAGGCUUCGGUGGCGCGAUAGCGCCAACGUCCUCAACCUCCAAUGCAUCCCACCACAUGAUGAUGCCUGAAGAGCCUUGGUUUUUUG [U7G C49A] — higher, 0.309
- GACCAAUCUGCCCUCAGAGCUCGAGAACAUCUUCGGAUGCAGAGGAGGCAGGCUUAGGUGGCGCGAUAGCGCCAACGUCCUAAACCUCCAAUGCAUUCCACCACAUGAUGAUGCCUGAAGAGCCUUGGGUUUUUG [C56A C82A C97U U129G] — higher, -2.1
- GACCAAUCUUCCCUCAGAGCUCGAGAACAUCUUCGGAUGCAGAGGAGGCAGGCUUCGGUGGUGCGAUAGCGCCAACGUCCUCAACCUCCAAUGCAUCCCACCACAUGAUGCUGCCUCAAGAGCCUUGGUUUUUUG [G10U C62U A111C G117C] — higher, -5.6
- GACCAAUCUGCCCACAGAGCUCGAGAACAUCUUCGGAUGCAGAGGAAGCAGGCUUCGGUGGCGCGAUAGCGCCAACGUCCUCAACCUCCAAUGCAUCCCACAACAUGAUGAUGCCUGAAGCGCCUUGGUUUUUUG [U14A G47A C102A A121C] — higher, -2.83
